Measured values published in PMC4265565 (Protein expression and purification, 2012).

Biological target: XPB–p62–p44–p34 sub-complex (human, UniProt P19447 1-782; P32780 1-548; Q13888 1-395; Q13889 1-308)
Experiment: SEC

Sequence of XPB–p62–p44–p34 sub-complex (P19447 whole entry, chain 1 of 4): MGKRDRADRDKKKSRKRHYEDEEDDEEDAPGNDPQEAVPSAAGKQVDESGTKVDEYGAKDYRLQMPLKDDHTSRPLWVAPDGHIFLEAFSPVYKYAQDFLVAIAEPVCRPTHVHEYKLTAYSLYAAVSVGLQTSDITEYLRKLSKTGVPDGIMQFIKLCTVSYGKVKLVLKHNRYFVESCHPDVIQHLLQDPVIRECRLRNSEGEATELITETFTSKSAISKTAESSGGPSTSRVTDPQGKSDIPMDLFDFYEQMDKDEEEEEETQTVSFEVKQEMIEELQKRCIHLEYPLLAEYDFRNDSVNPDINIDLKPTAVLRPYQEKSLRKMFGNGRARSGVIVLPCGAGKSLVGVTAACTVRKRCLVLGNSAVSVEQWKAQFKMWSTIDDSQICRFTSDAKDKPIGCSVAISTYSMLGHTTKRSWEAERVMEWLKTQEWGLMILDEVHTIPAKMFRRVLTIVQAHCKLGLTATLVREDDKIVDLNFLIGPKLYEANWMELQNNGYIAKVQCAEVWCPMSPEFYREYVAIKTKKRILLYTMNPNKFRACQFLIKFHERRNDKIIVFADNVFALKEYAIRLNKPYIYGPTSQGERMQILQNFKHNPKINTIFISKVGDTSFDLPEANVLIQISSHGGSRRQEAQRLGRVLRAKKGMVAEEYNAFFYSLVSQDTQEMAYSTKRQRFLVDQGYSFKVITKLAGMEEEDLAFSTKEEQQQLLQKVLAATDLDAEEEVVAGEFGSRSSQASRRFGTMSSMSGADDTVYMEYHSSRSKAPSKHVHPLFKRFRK
Sequence of XPB–p62–p44–p34 sub-complex (P32780 whole entry, chain 2 of 4): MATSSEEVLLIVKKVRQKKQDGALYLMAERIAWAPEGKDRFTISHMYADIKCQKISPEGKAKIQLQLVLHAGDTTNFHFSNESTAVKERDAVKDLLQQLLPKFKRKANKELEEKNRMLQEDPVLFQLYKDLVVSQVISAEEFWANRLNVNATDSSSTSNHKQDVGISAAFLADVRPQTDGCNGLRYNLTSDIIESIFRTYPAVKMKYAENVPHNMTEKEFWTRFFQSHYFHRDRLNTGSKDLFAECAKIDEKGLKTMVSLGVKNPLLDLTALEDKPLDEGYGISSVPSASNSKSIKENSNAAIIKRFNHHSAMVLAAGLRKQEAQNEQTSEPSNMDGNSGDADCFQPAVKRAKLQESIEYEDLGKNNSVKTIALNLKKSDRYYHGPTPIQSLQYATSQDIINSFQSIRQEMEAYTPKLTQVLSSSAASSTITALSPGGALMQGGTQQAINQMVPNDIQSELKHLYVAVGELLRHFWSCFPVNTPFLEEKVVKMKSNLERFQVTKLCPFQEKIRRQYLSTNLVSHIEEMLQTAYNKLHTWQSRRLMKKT
Sequence of XPB–p62–p44–p34 sub-complex (Q13888 whole entry, chain 3 of 4): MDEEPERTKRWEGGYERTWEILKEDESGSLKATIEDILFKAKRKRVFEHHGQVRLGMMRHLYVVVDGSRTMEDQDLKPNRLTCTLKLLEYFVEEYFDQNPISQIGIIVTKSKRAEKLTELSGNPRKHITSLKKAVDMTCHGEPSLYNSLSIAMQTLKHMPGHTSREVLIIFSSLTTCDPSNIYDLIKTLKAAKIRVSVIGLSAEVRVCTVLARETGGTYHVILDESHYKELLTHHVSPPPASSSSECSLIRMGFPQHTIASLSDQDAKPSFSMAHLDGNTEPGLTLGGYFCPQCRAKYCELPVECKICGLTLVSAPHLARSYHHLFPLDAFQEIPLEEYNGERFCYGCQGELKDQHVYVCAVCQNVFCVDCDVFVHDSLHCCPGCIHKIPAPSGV
Sequence of XPB–p62–p44–p34 sub-complex (Q13889 whole entry, chain 4 of 4): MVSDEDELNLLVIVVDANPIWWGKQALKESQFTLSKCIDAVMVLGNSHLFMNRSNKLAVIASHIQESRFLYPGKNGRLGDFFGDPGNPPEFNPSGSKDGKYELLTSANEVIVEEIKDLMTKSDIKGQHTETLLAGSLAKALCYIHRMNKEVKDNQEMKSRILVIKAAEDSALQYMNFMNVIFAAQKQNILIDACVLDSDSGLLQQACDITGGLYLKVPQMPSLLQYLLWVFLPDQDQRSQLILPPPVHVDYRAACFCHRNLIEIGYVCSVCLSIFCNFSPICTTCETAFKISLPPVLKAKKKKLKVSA

B1: GST–p8 (natural protein, human, UniProt Q6ZYL4 1-71, looked up)
chain: MVNVLKGVLIECDPAMKQFLLYLDESNALGKKFIIQDIDDTHVFVIAELVNVLQERVGELMDQNAFSLTQK
B1: binds.
